Experiments:
Assay in all cases: ITC
[1] = molecular target: K48-linked diUb (UniProt P0CG48 1-76, K48-linked (isopeptide linkage between the two Ub units))
[2] = molecular target: linear diUb (UniProt P0CG48 1-76; P0CG48 1-76)
[3] = molecular target: ubiquitin (Ub) (UniProt P0CG48 1-76)

B1: tandem UBA domains of USP13 (USP13-UBA12, residues 652-776) (domain or fragment)
chain: DIDESSVMQLAEMGFPLEACRKAVYFTGNMGAEVAFNWIIVHMEEPDFAEPLTMPGYGGAASAGASVFGASGLDNQPPEEIVAIITSMGFQRNQAIQALRATNNNLERALDWIFSHPEFEEDSDF
In the case of B1, the Kd [1] is reported as 1800 nM, the Kd [2] is reported as 2300 nM and the Kd [3] is reported as 21000 nM.

Reference: publication PMC3247260 (2011)
